Assay results: the supplement of paper PMC10567573

B1: TBX6 (parent)
chain: AFLELPHGSGGSGYPAAPPAVPFA
B2: RAD51 (parent)
chain: RFLRMLLRLADEFGVAVVITNQVV

Variants of: B1
Assay: protein stability index of a GFP-peptide fusion (GPS, HEK-293T) (PSI 1-6); higher = more stable
Conditions: c terminus: a fixed tail appended
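Further: lentivirally expressed fusions sorted by FACS into six bins by GFP to DsRed ratio, PSI derived from sequencing read proportions per bin multiplied by bin number.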

Protein stability index: each site, then its substitutions
V21: G 3.31, S 2.59, K 3.23, Y 2.12, L 2.58, M 2.36, F 1.97, R 2.64, N 2.64, W 2.07, E 3.02, D 3.46, C 2.09
A20: Y 2.03, H 2.38, L 2.21, T 2.42, K 2.85, D 3.49, E 2.87, W 2.46, N 2.69, R 2.56, G 2.73, V 1.84, F 2.4, C 2.68, I 2.11, Q 2.99, S 2.52, M 2.35
P22: I 1.73, S 2.18, M 2.02, W 2.25, F 2.13, L 1.4, E 2.54, D 3.29, V 2.16, R 2.3, A 2.14, G 2.42, H 2.46, T 1.86, Y 2.02, K 2.19, N 1.89, C 2.1, Q 2.52
A24: I 2.23, W 1.67, C 1.53, T 2.55, Q 2.71, M 2.19, R 2.54, F 1.54, H 1.92, L 1.6, S 2.63, E 3.4, G 2.56, Y 1.89, K 2.55, V 2.47, D 3.33, N 2.68
A17: Y 2.36, M 2.17, E 2.97, V 2.62, S 2.46, I 2.65, T 2.58, D 2.85, Q 2.54, G 2.03, N 2.22, R 2.37, W 2.02, C 2.61, L 2.57, F 1.99, K 2.4
F23: G 3.72, C 3.36, T 3, A 3.48, Y 2.42, V 2.89, Q 3.7, R 3.3, L 2.35, N 3.76, K 3.38, D 4.19, I 2.52, W 2.18, E 3.56, H 3.05, S 3.21, M 2.62
P19: C 2.05, M 2.19, W 2.83, Y 1.48, N 2.06, D 2.56, R 2.17, Q 2.47, T 2.37, H 2.23, E 2.78, I 2.27, L 2.25, K 2.07, G 2.38, A 2.72, F 1.59, S 2.13, V 2.13
A16: L 2.32, S 2.22, V 2.19, T 2.63, H 2.21, I 2.24, N 2.43, Y 2.46, W 1.94, K 2.99, G 2.09, Q 2.77, R 2.29, M 2.17
P18: I 2.29, C 2.4, F 1.96, G 2.39, R 2.17, A 1.94, E 3.32, D 2.61, L 2.44, H 2.23, M 2.56, K 2.4, N 2.19, T 2.41, Y 2.06, W 2.03, V 2.01, S 2.55, Q 2.22

Variants of: B2
Assay: as above
Conditions: c terminus: a fixed tail appended

Protein stability index: each site, then its substitutions
A10: F 2.21, I 3.61
R1: G 2.51
N21: H 1.43, P 1.7, M 4.31
V18: L 2.62
M5: A 3.9, Y 2.57
L6: S 3.28
L3: K 2.6
I19: N 2.67
